Laboratory results as given in patent publication US6268347A, “Prosaposin-derived peptides” (Regents of the University of CA, priority 1999, dated 2001).
Where a SMILES comes first, the peptide text is derived from it. [ ]: non-standard residue; d: D form.

What was measured:
[1] = system: Chung model rats; experiment: Tactile allodynia (von Frey 50% paw withdrawal threshold) in Chung model rats; type: in vivo, rat; conditions: any concentration tested, intrathecal
Method: The surgical procedure previously described by Kim and Chung, supra, 1992, was performed on male Sprague-Dawley rats weighing 120 to 150 grams to induce an allodynic state. Briefly, the rats were anesthetized with halothane; subsequently, the left L-5 and L-6 spinal nerves were isolated adjacent to the vertebral column and ligated with 6.0 silk suture distal to the dorsal root ganglion. After a ten to fourteen day post operative recovery period, a spinal catheter was introduced. Five days following the second surgery, intrathecal drug administration was accomplished using a gear driven micro-injection syringe connected to a spinal catheter inserted through the foramen magnum. Prior to testing, the rats were placed in clear plastic wire meshed cages and allowed to accommodate.
To assess the 50% mechanical threshold for paw withdrawal, a von Frey hair was applied to the hind foot avoiding the foot pad. Each of the von Frey hairs, which are calibrated to bend at increasing log forces, were pressed perpendicularly to the foot with sufficient force to cause slight bending for a duration of approximately six to eight seconds. A positive response was noted if the foot was sharply withdrawn. […] The X-axis indicates the time after the injection at which point the hypersensitivity to pressure on the foot pad was measured.

[2] = system: neuroblastoma cells; conditions: cited from earlier work
[3] = system: choline acetyltransferase activity; conditions: cited from earlier work
[4] = system: neurite outgrowth; conditions: cited from earlier work

Molecule	side effects such as sedation [1]	cell death in neuroblastoma cells [2]	choline acetyltransferase activity [3]	neurite outgrowth [4]
CC[C@H](C)[C@H](NC(=O)[C@H](CCC(=O)O)NC(=O)[C@H](CCCCN)NC(=O)[C@H](CCC(=O)O)NC(=O)[C@@H](NC(=O)[C@H](CCCCN)NC(=O)[C@H](CC(N)=O)NC(=O)[C@H](CC(N)=O)NC(=O)[C@H](CC(=O)O)NC(=O)[C@@H](NC(=O)[C@H](CC(C)C)NC(=O)[C@H](CCCCN)NC(=O)[C@@H](NC(=O)[C@@H](NC(=O)[C@H](CCC(=O)O)NC(=O)[C@H](CCCCN)NC(=O)[C@@H](NC(=O)[C@H](CC(C)C)NC(=O)[C@H](Cc1ccccc1)NC(=O)[C@H](CCC(=O)O)NC(=O)[C@@H](N)CS)C(C)C)C(C)C)[C@@H](C)O)[C@@H](C)CC)[C@@H](C)O)C(=O)N[C@@H](CC(C)C)C(=O)O [SEQ ID NO: 1] (H-CEFLVKEVTKLIDNNKTEKEIL-OH)	No significant side effects such as sedation were observed			
CC[C@H](C)[C@H](NC(=O)[C@H](CCC(=O)O)NC(=O)[C@H](CCC(=O)O)NC(=O)[C@@H](NC(=O)[C@H](C)NC(=O)[C@H](CC(N)=O)NC(=O)[C@H](CC(N)=O)NC(=O)[C@H](CC(=O)O)NC(=O)[C@@H](NC(=O)[C@H](CC(C)C)NC(=O)[C@@H](C)NC(=O)[C@@H](N)[C@@H](C)O)[C@@H](C)CC)[C@@H](C)O)C(=O)N[C@@H](CC(C)C)C(=O)N[C@@H](Cc1ccc(O)cc1)C(=O)O [SEQ ID NO: 2, TXLIDNNATEEILY] (H-T[dA]LIDNNATEEILY-OH)	No side effects were observed			
Prosaposin: 517 amino acid protein, precursor of four sphingolipid activator proteins (saposins A, B, C, D) (protein, UniProt P07602 1-524, looked up, full-length) MYALFLLASLLGAALAGPVLGLKECTRGSAVWCQNVKTASDCGAVKHCLQTVWNKPTVKSLPCDICKDVVTAAGDMLKDNATEEEILVYLEKTCDWLPKPNMSASCKEIVDSYLPVILDIIKGEMSRPGEVCSALNLCESLQKHLAELNHQKQLESNKIPELDMTEVVAPFMANIPLLLYPQDGPRSKPQPKDNGDVCQDCIQMVTDIQTAVRTNSTFVQALVEHVKEECDRLGPGMADICKNYISQYSEIAIQMMMHMQPKEICALVGFCDEVKEMPMQTLVPAKVASKNVIPALELVEPIKKHEVPAKSDVYCEVCEFLVKEVTKLIDNNKTEKEILDAFDKMCSKLPKSLSEECQEVVDTYGSSILSILLEEVSPELVCSMLHLCSGTRLPALTVHVTQPKDGGFCEVCKKLVGYLDRNLEKNSTKQEILAALEKGCSFLPDPYQKQCDQFVAEYEPVLIEILVEVMDPSFVCLKIGACPSAHKPLLGTEKCIWGPSYWCQNTETAAQCNAVEHCKRHVWN		prevents cell death	increases choline acetyltransferase activity	stimulates motor neurite outgrowth in vitro and in vivo
